These results are taken from article PMC5960625 (Biochemical pharmacology, 2018).

Assay [1] concerns the target T1, constitutive androstane receptor (hCAR1) (Homo sapiens, UniProt Q14994).
T1 sequence (Q14994 109-352 limits assumed): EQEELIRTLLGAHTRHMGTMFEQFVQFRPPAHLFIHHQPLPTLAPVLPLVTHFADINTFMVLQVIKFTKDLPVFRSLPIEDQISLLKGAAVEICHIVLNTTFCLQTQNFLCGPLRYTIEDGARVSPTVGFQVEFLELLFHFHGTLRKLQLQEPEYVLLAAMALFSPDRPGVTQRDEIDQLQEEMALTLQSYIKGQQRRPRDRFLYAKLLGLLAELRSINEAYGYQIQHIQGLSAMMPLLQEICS
As to the kind of experiment: SPR. It is filed as binding.

In assay [2] the target is GAL4DBD-NCoR fusion (nuclear receptor co-repressor). Nature of the assay: two-hybrid.
The target of assay [3] is GAL4DBD-SMRT fusion (silencing mediator for retinoid or thyroid hormone receptors). Nature of the assay: two-hybrid.
Assay [4] addresses T2, human CAR ligand-binding domain (hCAR1-LBD), purified (human).
T2 chain: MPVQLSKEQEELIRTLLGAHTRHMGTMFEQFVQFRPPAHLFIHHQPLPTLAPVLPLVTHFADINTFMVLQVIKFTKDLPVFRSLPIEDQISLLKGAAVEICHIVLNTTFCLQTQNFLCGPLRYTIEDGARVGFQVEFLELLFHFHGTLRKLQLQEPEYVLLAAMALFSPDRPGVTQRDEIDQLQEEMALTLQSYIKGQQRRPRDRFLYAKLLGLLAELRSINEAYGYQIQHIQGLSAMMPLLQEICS
Nature of the assay: HDX-MS.

Broadly, the Kd is the constant that tells how readily two partners part at equilibrium. Read a low Kd as higher affinity. `CCOC(=O)Nc1ccc2c(c1)N(C(=O)CN(CC)CC)c1ccccc1CC2` [CINPA1] showed a Kd in assay [1] of about 548 µM.
Consider “VP16AD-hCAR1 F217A (full length) (receptor)”, for which the loss of interaction in assay [2] came to 75%; in assay [3] it was 50%.
With “VP16AD-hCAR1 Y224A (full length) (receptor)”, the loss of interaction in assay [2] was 75%; in assay [3], 50%.
For the molecule ASNLGLEDIIRKALMGSFD [NCoR1-3 cofactor peptide], in assay [4], the binding result is given as “binds”.
